Measurements published in patent US5969097A, “Human guanylin” (G. D. Searle & Co., priority 1992, dated 1999).

Molecular target: T1, intestinal guanylate cyclase (Homo sapiens, UniProt P25092)
T1 construct: host or cells: T84 human colon carcinoma cells
Assay: T84 cell bioassay: intracellular cyclic GMP levels
Format: cell-based
Settings: compared with STa; T84 cells, FIG. 3a
Description: a) Activity in the T84 cell bioassay. As determined by analysis of the effects of the peptides on intracellular cyclic GMP levels.
Cell Culture: A cultured human colon carcinoma cell line (T84) was obtained from the American Type Culture Collection (Rockville, Md.) at passage 52. Cells were grown to confluency in 24-well culture plates with a 1:1 mixture of Ham's F12 medium and Dulbecco's modified Eagle's medium (DMEM), supplemented with 10% fetal calf serum, 100 IU/ml penicillin, and 100 μg/ml streptomycin. Cells were used at passages 54-60.
Cyclic GMP determination: Monolayers of T84 cells in 24-well plates were washed twice with 1 ml/well DMEM, then incubated at 37 C. for 10 min with 0.5 ml DMEM containing 1 mM isobutylmethylxanthine (IBMX), a cyclic nucleotide phosphodiesterase inhibitor. Agents and fractions were then added for the indicated time as described in the results section. The media was then aspirated and the reaction terminated by the addition of ice cold 0.5 ml of 0.1N HCl. Aliquots were then evaporated to dryness under nitrogen and then resuspended in 5 mM sodium acetate buffer, pH 6.4. The samples were subsequently measured for cyclic GMP by RIA as described by Steiner et al. (16).

T1 sequence (P25092 24-1073): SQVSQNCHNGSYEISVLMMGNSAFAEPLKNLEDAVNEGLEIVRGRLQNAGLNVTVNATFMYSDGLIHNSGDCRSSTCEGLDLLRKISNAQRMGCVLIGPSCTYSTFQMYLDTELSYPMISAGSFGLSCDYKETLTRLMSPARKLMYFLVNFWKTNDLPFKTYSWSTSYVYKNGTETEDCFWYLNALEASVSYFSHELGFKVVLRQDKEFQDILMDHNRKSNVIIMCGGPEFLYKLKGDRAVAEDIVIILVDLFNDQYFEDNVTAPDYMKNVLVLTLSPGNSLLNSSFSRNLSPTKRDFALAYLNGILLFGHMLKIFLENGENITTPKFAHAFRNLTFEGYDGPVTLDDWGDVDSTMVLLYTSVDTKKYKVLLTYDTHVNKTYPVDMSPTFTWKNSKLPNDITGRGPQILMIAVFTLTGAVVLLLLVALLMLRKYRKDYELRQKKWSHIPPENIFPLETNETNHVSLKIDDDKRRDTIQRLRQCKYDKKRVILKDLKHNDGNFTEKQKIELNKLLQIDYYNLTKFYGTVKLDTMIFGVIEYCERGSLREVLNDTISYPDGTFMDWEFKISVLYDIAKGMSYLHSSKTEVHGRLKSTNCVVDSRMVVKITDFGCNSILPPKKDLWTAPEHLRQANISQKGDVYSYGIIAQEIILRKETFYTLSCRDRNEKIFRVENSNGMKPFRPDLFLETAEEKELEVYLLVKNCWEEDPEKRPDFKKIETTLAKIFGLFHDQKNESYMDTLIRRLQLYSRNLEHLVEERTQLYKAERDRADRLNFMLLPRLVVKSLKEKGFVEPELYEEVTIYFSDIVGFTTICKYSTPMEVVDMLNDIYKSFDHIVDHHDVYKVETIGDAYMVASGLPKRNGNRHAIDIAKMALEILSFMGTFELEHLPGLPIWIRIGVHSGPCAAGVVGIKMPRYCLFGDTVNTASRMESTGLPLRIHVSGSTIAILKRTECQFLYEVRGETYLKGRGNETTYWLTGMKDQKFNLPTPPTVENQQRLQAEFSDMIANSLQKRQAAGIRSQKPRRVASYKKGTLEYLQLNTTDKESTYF

B1: rat guanylin: 15 amino acid rat guanylin peptide; shares 14 of 15 amino acids with human guanylin (peptide)
peptide: MNAWLLSVLCLLGALAVLVEGVTVQDGDLSFPLESVKQLKHLREVQEPTLMSHKKFALRLPKPVAPELCSQSAFPEALRPLCEKPNAEEILQRLEAIAQDPNTCEICAYAACTGC
- relative potency to activate intestinal guanylate cyclase (T84 cell cyclic GMP): about one order of magnitude less potent than STa
